Assay results published in paper PMC9371921, “Strand annealing and motor driven activities of SMARCAL1 and ZRANB3 are stimulated by RAD51 and the paralog complex” (Nucleic Acids Research, 2022).

Key:
FLAG-ZRANB3 = target: T1, FLAG-ZRANB3 (human, UniProt Q5FWF4 1-1079); test: pull-down; MBP-RAD51 (bait) from bacterial soluble extract bound to amylose resin and washed; purified FLAG-SMARCAL1, FLAG-ZRANB3 or FLAG-BCDX2 (1 μg, prey) in 150 μl IP buffer (25 mM Tris-HCl pH 7.5, 100 mM NaCl, 3 mM EDTA, 0.5 mM DTT, BSA, 10% glycerol), 1 h at 4°C; eluted with maltose; Western blot with anti-MBP and anti-FLAG; conditions: both partners purified
T1 construct: also called ZRANB3 WT
T1 sequence (looked up): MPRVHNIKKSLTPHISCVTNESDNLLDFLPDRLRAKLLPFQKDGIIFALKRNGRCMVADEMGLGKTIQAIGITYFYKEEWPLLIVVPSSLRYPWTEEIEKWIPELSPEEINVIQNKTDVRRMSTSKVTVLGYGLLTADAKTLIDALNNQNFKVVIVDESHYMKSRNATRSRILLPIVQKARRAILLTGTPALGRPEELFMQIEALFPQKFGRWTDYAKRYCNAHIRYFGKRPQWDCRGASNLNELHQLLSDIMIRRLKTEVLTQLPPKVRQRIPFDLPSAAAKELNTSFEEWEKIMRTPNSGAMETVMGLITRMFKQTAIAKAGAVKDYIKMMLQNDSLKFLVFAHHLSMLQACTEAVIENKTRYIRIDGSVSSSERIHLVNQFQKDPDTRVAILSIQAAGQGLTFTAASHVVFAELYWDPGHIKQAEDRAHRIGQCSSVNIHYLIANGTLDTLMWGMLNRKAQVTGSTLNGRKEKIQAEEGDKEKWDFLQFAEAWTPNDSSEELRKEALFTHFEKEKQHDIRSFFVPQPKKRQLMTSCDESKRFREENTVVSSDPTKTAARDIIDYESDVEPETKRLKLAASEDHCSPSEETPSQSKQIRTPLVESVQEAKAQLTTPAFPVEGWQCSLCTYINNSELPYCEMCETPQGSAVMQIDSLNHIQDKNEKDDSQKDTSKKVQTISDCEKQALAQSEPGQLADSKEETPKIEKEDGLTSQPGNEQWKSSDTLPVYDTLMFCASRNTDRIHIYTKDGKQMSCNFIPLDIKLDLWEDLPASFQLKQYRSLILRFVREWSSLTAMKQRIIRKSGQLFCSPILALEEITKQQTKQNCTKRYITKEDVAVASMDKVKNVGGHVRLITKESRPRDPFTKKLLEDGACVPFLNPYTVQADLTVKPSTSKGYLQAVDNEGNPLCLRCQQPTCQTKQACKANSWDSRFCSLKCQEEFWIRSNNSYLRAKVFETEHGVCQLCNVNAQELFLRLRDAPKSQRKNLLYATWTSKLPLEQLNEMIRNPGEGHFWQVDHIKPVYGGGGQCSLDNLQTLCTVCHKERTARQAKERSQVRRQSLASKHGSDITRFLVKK

FLAG-SMARCAL1 = target: T2, FLAG-SMARCAL1 (human, UniProt Q9NZC9 1-954); test: as above; conditions: both partners purified
T2 construct: also called SMARCAL1-WT; SMARCAL1 wild type
T2 sequence (looked up): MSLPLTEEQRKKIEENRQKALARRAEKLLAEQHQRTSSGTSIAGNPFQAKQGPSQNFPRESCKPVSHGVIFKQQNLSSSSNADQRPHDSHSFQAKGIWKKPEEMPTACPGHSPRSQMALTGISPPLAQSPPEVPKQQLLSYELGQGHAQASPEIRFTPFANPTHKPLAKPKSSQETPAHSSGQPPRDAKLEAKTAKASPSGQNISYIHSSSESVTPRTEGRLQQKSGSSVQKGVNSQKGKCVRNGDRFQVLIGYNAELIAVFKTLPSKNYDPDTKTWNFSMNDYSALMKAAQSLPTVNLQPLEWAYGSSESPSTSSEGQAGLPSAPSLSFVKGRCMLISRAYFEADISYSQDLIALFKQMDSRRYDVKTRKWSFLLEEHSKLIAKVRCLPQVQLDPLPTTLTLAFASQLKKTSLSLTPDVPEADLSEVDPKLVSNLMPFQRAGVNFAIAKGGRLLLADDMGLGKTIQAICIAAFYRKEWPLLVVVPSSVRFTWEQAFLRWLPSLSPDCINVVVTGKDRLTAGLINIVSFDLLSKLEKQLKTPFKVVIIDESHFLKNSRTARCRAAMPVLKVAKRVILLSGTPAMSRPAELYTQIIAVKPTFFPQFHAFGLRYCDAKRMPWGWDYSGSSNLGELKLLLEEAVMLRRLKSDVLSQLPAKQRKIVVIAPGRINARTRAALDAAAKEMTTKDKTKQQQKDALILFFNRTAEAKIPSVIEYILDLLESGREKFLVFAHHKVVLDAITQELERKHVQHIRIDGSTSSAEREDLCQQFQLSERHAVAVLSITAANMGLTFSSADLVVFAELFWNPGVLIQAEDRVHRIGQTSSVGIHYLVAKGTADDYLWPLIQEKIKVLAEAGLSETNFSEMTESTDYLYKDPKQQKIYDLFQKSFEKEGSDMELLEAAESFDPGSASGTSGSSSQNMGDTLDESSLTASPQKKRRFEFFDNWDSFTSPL

- binding result (FLAG-ZRANB3): binds
- binding result (FLAG-SMARCAL1): binds
B1: MBP-RAD51 (natural protein, human, UniProt Q06609 1-339, looked up)
chain: MAMQMQLEANADTSVEEESFGPQPISRLEQCGINANDVKKLEEAGFHTVEAVAYAPKKELINIKGISEAKADKILAEAAKLVPMGFTTATEFHQRRSEIIQITTGSKELDKLLQGGIETGSITEMFGEFRTGKTQICHTLAVTCQLPIDRGGGEGKAMYIDTEGTFRPERLLAVAERYGLSGSDVLDNVAYARAFNTDHQTQLLYQASAMMVESRYALLIVDSATALYRTDYSGRGELSARQMHLARFLRMLLRLADEFGVAVVITNQVVAQVDGAAMFAADPKKPIGGNIIAHASTTRLYLRKGRGETRICKIYDSPCLPEAEAMFAINADGVGDAKD
notes: In the pull-downs the MBP tag was kept; the RAD51 of the DNA annealing assays was the same construct with the MBP cut off by PreScission protease and purified on HiTrap Q; not shown: MBP, N-terminal, kept
